Reference: the MegaScale stability set (Tsuboyama et al. 2023)

B1: EEHEE_rd4_0003 (parent)
chain: KKVTINGVEIKFNNPEEAVKFALELAKRLNLRIEFHGDQIKIE
B2: EEHEE_rd4_0363 (parent)
chain: VTVDIKGMEYHFDNPEEAKKFAERMAKELGGELKVENGTLKVE

Variants of: B1
Assay: folding stability dG (cDNA display proteolysis); higher = more stable
Conditions: PBS, room temperature

Folding stability dG [kJ/mol] of substitutions, site by site:
V3: Q 6.67 | M 8.88 | H 7.8 | F 9.49 | R 8.16 | E 7.77
V19: D 6.74 | H 9.24 | S 7.77 | A 9.18 | P 4.34 | T 9.3 | R 10.5
A18: R 7.18 | V 10.4 | W 11.6 | K 6.34 | H 7.1 | P 6.86
E16: T 10.3 | Y 11.3 | I 10.8 | D 10.6 | W 12.5 | L 11.2 | P 8.68
L31: C 11.9 | H 5.84 | K 5.03 | A 11.4 | N 3.45 | W 10.5
L23: R 9.18 | W 9.84 | N 8.18 | K 9.07 | Y 10.2
A22: H 5.53 | D 1.7 | L 12.5 | N 3.39 | G 6.61 | V 11.5 | F 11.5 | K 5.04 | I 13.4
N30: T 8.89 | H 10.3 | S 9.2 | R 10.9 | A 9.33 | Y 10.1 | M 10.2 | W 11.4
N13: I 10.8 | Y 10 | S 11.3 | C 13.8 | L 11.4 | G 10.2 | T 10.9
V8: C 14.9 | F 11.4 | L 10.5 | W 11.5 | I 11.5
I42: D 5.68 | L 12.8 | G 5.29
A26: R 7.24 | V 9.47 | L 10.5 | H 6.17 | Q 7.46 | W 8.95
F21: P 2.11 | T 6.54 | M 7.88 | R 7.35 | Q 6.57 | C 13.3
N6: C 17.6 | W 14 | D 9.41 | T 8.41 | G 10.4 | P 6.56
I10: E 5.69 | Y 12.5 | V 9.28 | D 5.38
E17: L 10.7 | W 11.9 | R 9.04 | A 11.2 | S 10 | T 9.47 | H 9.33 | M 10.4 | I 9.87
N14: M 9.94 | Q 8.64 | P 10
K11: N 11.9 | L 12.6 | H 12.7 | D 9.63 | A 10.9 | C 16.5 | I 12.5 | R 11.6 | P 9.3
L25: S 4.63 | W 10.6 | N 5.51 | E 6.51
K1: I 13.8 | D 9.33 | V 13.6
R28: N 8.32 | D 7.05 | F 10.5 | H 9.3 | I 10.6 | K 9.73 | P 5.4
I5: Y 11.3 | L 10 | V 10.3 | A 7.16 | K 6.43
K20: V 9.21 | D 8.08 | G 7.39 | S 9.36 | Q 10.2 | L 10.4 | Y 10.3
H36: I 12.3 | F 11.6 | A 11 | M 11.4 | C 13.4 | P 7.17
K2: P 9.19 | Q 9.88 | V 13.7 | D 8.07 | I 14.3
I40: Q 5.81 | R 5.24 | F 7.45 | Y 6.88 | W 8.45
E34: R 10.8 | N 9.49 | T 11.9 | Y 11.6 | C 13.3
G37: I 9.83 | S 9.85 | M 10.5 | P 10.4 | R 9.59 | A 10
F35: M 9.37 | D 6.28 | Y 10.1 | Q 7.48 | T 7.63 | S 6.87
D38: Y 10.2 | M 9.78 | H 9.4 | G 9.65 | S 9.69 | F 11.3
F12: C 13.6 | L 8.04 | P 4.76 | G 6.5 | Q 4.72 | V 7.79 | R 5.92
T4: Q 9.08 | W 12.6 | S 9.96 | R 9.12 | D 7.11
E24: A 12 | P 6.14 | S 10.4 | C 17.5 | H 9.35 | G 9.55
E9: P 9.61 | T 12.5 | M 11 | S 10.8 | W 11.4 | I 11.9 | Q 10.3 | R 9.89
R32: E 6.85 | W 9.22 | I 9.86 | K 10.6
K41: Q 9.48 | G 7.26 | I 13.5 | A 9.88 | H 10.4
I33: F 8.3 | V 11.2
P15: E 10.5 | Y 13.2 | R 11.7 | S 11.6 | G 10.6
K27: E 9.95 | D 8.49 | W 10.3 | V 9.38
E43: F 15 | K 11.1 | T 13.7
Q39: R 10.5 | D 11 | Y 12.7 | M 12.1 | A 11 | K 9.73 | F 12.2
L29: A 7.28 | F 11.1 | Q 7.23 | K 6.69 | N 7.2
G7: I 11.9 | D 7.9 | S 7.76

Variants of: B2
Assay: as above
Conditions: PBS, room temperature

Folding stability dG [kJ/mol] of substitutions, site by site:
V3: A 1.64 | I 4.93 | Y 1.39 | P 0.247 | M 2.67 | K -0.134 | W 0.498 | C 5.6 | D -0.368 | G 0.247 | T 0.795 | N -0.0209 | R -0.967 | L 4.36 | F 2.52 | H -0.435 | E -0.715 | S 0.0167 | Q 0.163
I5: L 5.13 | R 0.151 | C 8.32 | H 3.26 | E 0.649 | W 6.23 | Y 6.37 | G 0.536 | F 6 | V 7.88 | P -0.699 | D 0.105 | T 0.841 | A 1.77 | M 3.15 | Q 0.209 | K 0.368 | S 1.21
T2: R 7.13 | K 8.14 | H 5.28 | M 7.15 | L 7.56 | V 9.27 | Q 4.31 | N 4.6 | W 8.53 | F 6.91 | A 4.61 | S 5.47 | Y 6.37 | I 9.9 | D 2.97 | P 1.87 | E 1.72 | G 1.63
V1: E 2.19 | N 5.5 | L 8.49 | H 6.82 | A 6.18 | M 8.39 | K 5.04 | P 2.56 | S 6.06 | W 11.8 | D 2 | I 8.61 | T 8.41 | F 10.1 | G 3.72 | C 11.2 | Y 10.7 | Q 5.56 | R 5.4
D4: T 11.9 | L 14.6 | Y 14 | N 11.2 | E 10.7 | R 11.5 | M 13.2 | K 11.6 | V 14.5 | Q 11.5 | S 12.5 | H 12.2 | A 10.2 | F 14 | P 1.74 | G 5.81 | I 15.6 | C 14.2 | W 15
